Experiment [1] addresses T1, HIV-1 Env expressed on the surface of ACH-2 cells reactivated with TNF-α (HIV-1). The experiment in a line: cell-based or functional assay.
For experiment [2], the target named is HIV-1 gp41 (strain not stated) (HIV-1). Kind of experiment: SPR (BIAcore), Env protein immobilized on CM5 chip, antibody as analyte.
Experiment [3] has as its target T2, BG505 SOSIP.664 gp140 trimer (HIV-1 BG505).
T2 construct: domain: gp140; Provided by Dr. John P Moore; When cleaved, each protomer is a gp120 chain plus a gp41 ectodomain chain; also called BG505 SOSIP.646; cleavable version gp140 trimer
The experiment is described as above.

Experiment [4] has as its target T3, full-length gp120 monomer (HIV-1 (Yu2 by the materials, not named …, UniProt P35961 32-498)).
T3 construct: domain: gp120; The tie to strain Yu2 is inferred from 'full-length Yu2 gp120 protein' in the materials. gp120IIIB and gp120BaL were also bought; General statements about 'gp120' are entered under this molecule; also called HIV-1 gp120 monomer; monomeric full-length gp120
Described as above.

For experiment [5], the target named is T2, BG505 SOSIP.664 gp140 trimer. The experiment in a line: SPR (BIAcore). (Surface plasmon resonance follows binding to a sensor surface in real time, without labels.)
Experiment [6] deals with T4, SF162 gp140 trimer (HIV-1 SF162, UniProt P19550 32-675).
T4 construct: domain: gp140; Obtained from the NIH AIDS Reagent Program; also called non-cleavable version of gp140 trimer (SF162); uncleaved SF162 gp140 trimer
Kind of experiment: ELISA on coated SF162 gp140 trimer, OD at 405 nm, 1x PBS as blank. In general terms: ELISA stands for enzyme-linked immunosorbent assay.

Experiment [7] has as its target T3, full-length gp120 monomer. The experiment in a line: SPR (BIAcore); lower end of the stated KD range.
For experiment [8], the target named is T5, Recombinant gp41HXB2 (ecto-domain aa546 to 682) (HIV-1 HXB2, UniProt P04578 546-682).
T5 construct: range 546-682; Bought from Aviva System Biology Corp; also called gp41 from HIV-1 HXB2 ecto-domain
Kind of experiment: ELISA on coated gp41HXB2, OD at 405 nm.

The target of experiment [9] is T2, BG505 SOSIP.664 gp140 trimer. Kind of experiment: ELISA on coated BG505 SOSIP.664 gp140 trimer, OD at 405 nm, 1x PBS as blank.
Experiment [10] deals with T1, HIV-1 Env expressed on the surface of …. The experiment in a line: flow cytometry titration on activated ACH-2 cells, from 20 µg/ml in 1:3 dilutions, FITC second antibody.
Experiment [11] deals with HIV-1 gp41 (strain not stated) (HIV-1). Kind of experiment: method not given.
In experiment [12] the target is T2, BG505 SOSIP.664 gp140 trimer. The experiment in a line: method not given.
Experiment [13] addresses T3, full-length gp120 monomer. Kind of experiment: ELISA on coated full-length gp120 monomer, OD at 405 nm, 1x PBS as blank.

This is an account of results in patent publication US20180028658A1 (NEW YORK BLOOD CENTER, published 2018).

As a reminder, the Kd is the equilibrium constant for the complex coming apart. A high value points to weaker binding. Broadly, the koff is a measure of how fast the partners let go of each other. A high value points to a short-lived complex. The kon is the second-order rate constant of association. Lower therefore signals slow association. The term EC50 (read off the curve) denotes the concentration at which the effect is half-maximal. The term EC50 denotes the concentration that produces a half-maximal response. A lower EC50 goes with an effect from little substance.

B1: vc-MMAE-NIH45-46 G54W (NYBC-HC-001) (antibody, V domains shown)
VH: QVRLSQSGGQMKKPGESMRLSCRASGYEFLNCPINWIRLAPGRRPEWMGWLKPRWGAVNYARKFQGRVTMTRDVYSDTAFLELRSLTSDDTAVYFCTRGKYCTARDYYNWDFEHWGRGAPVTVSS
VL: EIVLTQSPATLSLSPGETAIISCRTSQSGSLAWYQQRPGQAPRLVIYSGSTRAAGIPDRFSGSRWGADYNLSISNLESGDFGVYYCQQYEFFGQGTKVQVDI
modifications: MC-vc-PAB-MMAE linker payload on cysteines reduced with TCEP (sites and number not stated)
B1: the “EC50 of cell killing, […]-BLUE cell viability assay on activated ACH-2 latent cells” value in [1] stood at 0.85 µg/mL.

B2: NIH45-46 G54W (antibody, V domains shown)
VH: B1 VH
VL: B1 VL
notes: Human IgG1; Obtained from the NIH AIDS Reagent Program and also made recombinantly (VH and VK genes in human b12 Igγ and Igκ backbone vectors, 293T cells); FITC-labelled in the uptake experiments; also called NIH45-45 G54W
With B2, the equilibrium dissociation constant (Kd) was 6750 pM in [2]; 267 pM in experiment [3]; 110 pM in experiment [4]; 230 to 290 pM in experiment [5]; 110 to 170 pM in [7]; approximately 1000 pM in [11]. The Kd in [12] is approximately 100 pM. For the same molecule, the off-rate constant (koff) is 0.00461 s⁻¹ in [2], 5.37e-06 s⁻¹ in experiment [3] and 4.94e-06 s⁻¹ in experiment [4]. For the same molecule, the kon in experiment [2] worked out at 683000 M⁻¹ s⁻¹; in experiment [3], 20100 M⁻¹ s⁻¹. Also, the figures for the 50% effective concentration (EC50 (read off the curve)) in experiment [6], in [9] and in experiment [13] were approximately 0.2 µg/mL, approximately 0.01 µg/mL and approximately 0.5 µg/mL, respectively. The binding result in experiment [8] was “binds”. The concentration for a half-maximal effect (EC50) in [10] came to 5.2 µg/mL.
